Target: IL-2Rαβγ on mouse CTLL-2 cells (mouse) (UniProt P01590)
Assay: cell-based or functional assay

Chain of UniProt P01590 (P01590 22-268, chain 1 of 3): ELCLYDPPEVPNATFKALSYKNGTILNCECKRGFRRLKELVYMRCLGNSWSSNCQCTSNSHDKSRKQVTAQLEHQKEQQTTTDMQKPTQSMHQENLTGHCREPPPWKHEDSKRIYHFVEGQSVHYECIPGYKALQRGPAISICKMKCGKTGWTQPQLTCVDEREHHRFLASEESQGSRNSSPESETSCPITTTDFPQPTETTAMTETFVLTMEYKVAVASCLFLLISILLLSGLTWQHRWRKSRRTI
Chain of UniProt P01590 (P16297 27-539, chain 2 of 3, further chain): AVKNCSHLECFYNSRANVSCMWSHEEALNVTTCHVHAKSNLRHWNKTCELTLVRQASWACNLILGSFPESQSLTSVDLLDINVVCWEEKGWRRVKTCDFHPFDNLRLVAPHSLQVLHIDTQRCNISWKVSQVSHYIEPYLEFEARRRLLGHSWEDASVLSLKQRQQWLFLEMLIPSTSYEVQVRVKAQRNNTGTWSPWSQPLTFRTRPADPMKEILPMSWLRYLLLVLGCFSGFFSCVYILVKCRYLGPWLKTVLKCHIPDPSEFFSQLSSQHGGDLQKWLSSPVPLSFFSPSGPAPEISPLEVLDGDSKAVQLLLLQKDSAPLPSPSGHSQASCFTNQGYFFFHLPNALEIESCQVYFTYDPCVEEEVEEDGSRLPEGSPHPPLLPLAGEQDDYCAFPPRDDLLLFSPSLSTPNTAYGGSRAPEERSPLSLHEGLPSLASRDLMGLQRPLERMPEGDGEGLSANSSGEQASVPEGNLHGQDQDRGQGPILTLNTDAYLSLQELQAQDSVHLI
Chain of UniProt P01590 (P34902 23-369, chain 3 of 3, further chain): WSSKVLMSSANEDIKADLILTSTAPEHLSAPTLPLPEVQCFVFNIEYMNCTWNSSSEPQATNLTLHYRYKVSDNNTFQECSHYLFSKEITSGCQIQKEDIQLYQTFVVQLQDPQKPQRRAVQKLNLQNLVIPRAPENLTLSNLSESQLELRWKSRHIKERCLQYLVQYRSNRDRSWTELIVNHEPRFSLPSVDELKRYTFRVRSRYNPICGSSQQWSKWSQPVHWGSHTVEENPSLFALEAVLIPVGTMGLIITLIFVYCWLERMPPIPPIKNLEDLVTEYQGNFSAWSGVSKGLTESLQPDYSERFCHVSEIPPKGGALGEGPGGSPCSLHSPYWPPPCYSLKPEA

reference rhIL-2 (purchased from Beijing Solarbio Science & Technology Co., Ltd., catalog number: P00020) (from UniProt P60568 21-153) (ligand)
EC50 (ng/mL) of STAT5 phosphorylation assay (CTLL-2 cells): 0.38 ng/mL | EC50 (ng/mL), STAT5 phosphorylation assay (CTLL-2 cells): 0.18 ng/mL

Source: patent publication US20250213702A1
